{"source": "paper PMC3907276", "about": "(Molecular Biology of the Cell, 2014)", "biological_target": "T1, Vph1NT-FLAG (first 406 amino acids of Vph1p with C-terminal FLAG) (S. cerevisiae, UniProt P32563 1-406)", "T1 sequence (looked up)": "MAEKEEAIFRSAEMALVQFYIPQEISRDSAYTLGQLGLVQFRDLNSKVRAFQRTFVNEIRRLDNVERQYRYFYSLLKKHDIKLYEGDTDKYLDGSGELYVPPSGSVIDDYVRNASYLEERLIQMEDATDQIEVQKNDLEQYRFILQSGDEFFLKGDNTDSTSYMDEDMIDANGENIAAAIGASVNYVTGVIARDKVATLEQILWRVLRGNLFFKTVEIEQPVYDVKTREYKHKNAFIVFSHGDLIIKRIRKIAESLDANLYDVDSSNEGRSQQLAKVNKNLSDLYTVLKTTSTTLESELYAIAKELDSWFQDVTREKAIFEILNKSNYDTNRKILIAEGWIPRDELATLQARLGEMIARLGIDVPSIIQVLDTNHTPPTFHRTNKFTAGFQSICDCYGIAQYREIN", "experiment": "pull-down"}
{"binder": "GST-Rav1(840–1125) (domain or fragment, S. cerevisiae, UniProt P47104 840-1125, looked up) LTEQLTKTTLPYLTRHQQITLITVIEAVDEVTKNENIVDYNGVRFLLGVKLFLSHKNIQKSILMRDVSWALHSDNKEILLSSIDRHITSWNRAREYRIAYWIKEQDLVKKFEDIAKYEFSKDDKRDPSRCAIFYLALKKKQILLSLWKMAIGHPEQQKMVRFISNDFTVPRWRTAALKNAFVLLSKHRYMDAAVFFLLTDSLKDCVNVLCKQVHDMDLAIGVCRVYEGDNGPVLGELLTAQMLPETIKENDRWKASFIYWKLRKQEVAIKALLTAPIDLENNSSIV", "values": [{"measurement": "binding result", "value": "binds"}]}
